Data as given in publication PMC3644210 (Biochemical pharmacology, 2012).
Ends that are not written are not given here.

What was measured:
[1] = comparison value; source not explicitly stated; cited from earlier work
[2] = molecular target: Kv1.1 (Homo sapiens, UniProt Q09470); format: cell-based
[3] = molecular target: Kv1.5 (wildtype) (UniProt P22460)
[4] = molecular target: Kv1.1 E353T (UniProt Q09470)
[5] = molecular target: Kv1.1 Y379V (UniProt Q09470)
[6] = molecular target: Kv1.5 R487T (UniProt P22460)
Kv1.5 R487T, sequence (P22460 whole entry R487T): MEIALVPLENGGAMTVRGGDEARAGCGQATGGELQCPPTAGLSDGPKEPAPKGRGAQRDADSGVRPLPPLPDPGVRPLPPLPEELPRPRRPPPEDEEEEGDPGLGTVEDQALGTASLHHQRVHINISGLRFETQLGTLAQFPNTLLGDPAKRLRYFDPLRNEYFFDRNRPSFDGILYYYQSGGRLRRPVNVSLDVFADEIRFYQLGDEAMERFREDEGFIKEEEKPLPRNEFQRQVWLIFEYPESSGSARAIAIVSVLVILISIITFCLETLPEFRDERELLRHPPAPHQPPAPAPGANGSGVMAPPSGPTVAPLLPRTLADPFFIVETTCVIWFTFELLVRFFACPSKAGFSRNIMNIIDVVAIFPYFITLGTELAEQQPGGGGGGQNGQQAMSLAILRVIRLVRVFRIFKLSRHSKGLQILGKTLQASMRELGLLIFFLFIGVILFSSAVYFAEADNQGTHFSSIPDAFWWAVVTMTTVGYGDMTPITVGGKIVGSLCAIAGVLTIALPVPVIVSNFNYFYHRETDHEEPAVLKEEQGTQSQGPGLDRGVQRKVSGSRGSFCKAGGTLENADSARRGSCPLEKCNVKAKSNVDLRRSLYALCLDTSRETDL

Kv1.1, sequence (Q09470 whole entry): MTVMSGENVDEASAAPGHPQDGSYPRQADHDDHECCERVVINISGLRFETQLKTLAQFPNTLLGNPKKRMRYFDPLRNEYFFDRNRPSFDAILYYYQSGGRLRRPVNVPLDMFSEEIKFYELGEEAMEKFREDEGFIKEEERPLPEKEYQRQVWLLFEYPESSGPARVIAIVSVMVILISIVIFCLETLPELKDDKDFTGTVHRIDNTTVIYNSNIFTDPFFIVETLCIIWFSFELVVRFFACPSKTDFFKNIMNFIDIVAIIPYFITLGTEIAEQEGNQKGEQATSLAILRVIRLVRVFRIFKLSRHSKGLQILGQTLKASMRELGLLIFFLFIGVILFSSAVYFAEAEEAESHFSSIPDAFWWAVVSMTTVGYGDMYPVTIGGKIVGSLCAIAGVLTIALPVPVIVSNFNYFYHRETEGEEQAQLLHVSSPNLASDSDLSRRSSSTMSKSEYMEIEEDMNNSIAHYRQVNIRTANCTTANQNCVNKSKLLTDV
Kv1.5 (wildtype), sequence (P22460 whole entry): as the sequence (P22460 whole entry R487T) above, with T487R counted along it
Kv1.1 Y379V, sequence (Q09470 whole entry Y379V): as the sequence (Q09470 whole entry) above, with Y379V counted along it
Kv1.1 E353T, sequence (Q09470 whole entry E353T): as the sequence (Q09470 whole entry) above, with E353T counted along it

## OcyC8: κ-KTx2 scorpion toxin from Opisthacanthus cayaporum (YDACVNACLEHHPNVRECEEACKNPVPP; UniProt P86110 43-70, looked up)
[1]
  pI of OcyC8: 4.92

## CC[N+](CC)(CC)CC [TEA, Tetraethylammonium]
[2]; 0.4 mM TEA, n = 6, 250-ms steps to +10 mV
  reduction of the K+ current by TEA: 55 ± 2%
[2]; read-out: IC50 of TEA on Kv1.1, Kv1.1, source of the IC50 not stated
  IC50: 400 µM

## SCKKECSGSRRTKKCMQKCNREHGH-NH2 (ends and bridges not checked) [Hl15-1-1 (Heterometrus laoticus toxin)]
[3]
  percent inhibition of the K+ current by 30 μM Hl15-1-1 (whole-cell patch clamp): 1%
[4]
  percent inhibition of the K+ efflux by 30 μM Hl15-1-1 (whole-cell patch clamp): 32%
[5]
  percent inhibition of the K+ efflux by 30 μM Hl15-1-1 (whole-cell patch clamp): 6.1%
[6]
  percent inhibition of the K+ current by 30 μM Hl15-1-1 (whole-cell patch clamp): 26.3%
